Measurements: the RNAGym collection of RNA variant scans (doi:10.7554/elife.80360)

B1: Hammerhead Ribozyme (parent)
chain: ACCGGAUGUGCUUUCCGGUCUGAUGAGUCCGUGAGGACGAAACAG

Variants of: B1
Assay: self-cleavage, relative activity (ratio to wild type); higher = more cleavage; co-transcriptional

In order of rising self-cleavage:
1. U14A A40U  0.237
2. A26G C30G  0.245
3. U7A A41U  0.258
4. G33C A42C  0.268
5. A37C A42U  0.27
6. C15U A23G  0.271
7. U14C A40G  0.273
8. A37C C43G  0.28
9. C29A C38G  0.281
10. A37C A40C  0.285
11. C2G G17U  0.291
12. C15G G18U  0.293
13. C16A C43G  0.294
14. C3G U21G  0.298
15. C20G C43U  0.298
16. G8U G25C  0.302
17. G22C G35U  0.303
18. C16G G27U  0.304
19. A23C C30A  0.306
20. U13G G22U  0.306
21. G18A A40C  0.308
22. A1U G4U  0.309
23. G25C G36U  0.309
24. C15U A26G  0.313
25. U14G G25C  0.315
26. C3G C43A  0.318
27. U21C A42U  0.318
28. C16U G22C  0.318
29. A34G C43A  0.32
30. C20U A26C  0.321
31. C3G A6U  0.322
32. U24G A42U  0.324
33. G22A U28A  0.326
34. G4C U28G  0.326
35. A23U G36C  0.327
36. C2A A26C  0.328
37. U14A G22U  0.331
38. C30U A40G  0.333
39. G25A C43G  0.338
40. G25A A26C  0.339
41. G4C G35C  0.341
42. U24G A42C  0.343
43. U14C U21A  0.347
44. G25A G31A  0.347
45. G17A A41U  0.347
46. A26C C43A  0.349
47. G4A G39A  0.353
48. G25A A34U  0.357
49. A37G A41C  0.358
50. U19G G25C  0.359
51. C3G A6C  0.361
52. G22U G33C  0.363
53. G4A G27U  0.366
54. G25C C38A  0.367
55. U9A A26G  0.368
56. U19G G25U  0.37
57. C3G G45U  0.374
58. A1C G25U  0.377
59. A6U C20G  0.378
60. C38A C43G  0.382
61. C2A U7C  0.382
62. G10A A41U  0.386
63. C15G C38G  0.386
64. C3G A34U  0.389
65. A1C C38G  0.39
66. A6G G17U  0.393
67. U14G C20U  0.393
68. C2G U13C  0.4
69. A6U G17A  0.401
70. C15U G39C  0.407
71. A23C G35U  0.408
72. G27C A34C  0.411
73. U12A U21G  0.425
74. C30A C43U  0.431
75. G27C G45A  0.432
76. U7C C11U  0.433
77. A26C A34C  0.434
78. C15A A37U  0.434
79. G22A G45C  0.436
80. U24G G27U  0.438
81. C15A C20U  0.438
82. C11U G45C  0.44
83. G8C G39U  0.441
84. A40G G45A  0.441
85. A6U U21G  0.449
86. G4U A34G  0.452
87. G10C A40C  0.457
88. G27U G31C  0.462
89. A26U C29G  0.475
90. U19C G36A  0.475
91. C3G U24C  0.477
92. A26U A44C  0.477
93. G17U G27C  0.486
94. A37G G45A  0.486
95. G18U C30G  0.493
96. G33A G39C  0.503
97. U9A G36U  0.505
98. G35A G36A  0.508
99. C15A C38G  0.515
100. U14G G27U  0.515
101. G4U C11G  0.52
102. A6U G10C  0.522
103. U7C U9A  0.524
104. U28G G45U  0.527
105. G27U G31A  0.529
106. U21A G31C  0.532
107. G18C G35A  0.537
108. G8C U19C  0.544
109. A23G A44G  0.55
110. C2A G8C  0.559
111. U14G G36U  0.565
112. U12C U19C  0.577
113. G35A A37G  0.58
114. A1U C38U  0.583
115. C11U A34C  0.584
116. A1U G45U  0.585
117. C29U G45U  0.596
118. G4A G33U  0.597
119. G33A G36U  0.613
120. G27A U32G  0.628
121. U28C G36A  0.634
122. G10U C38A  0.645
123. C11G A44U  0.648
124. C2U G27C  0.654
125. C11U G27A  0.666
126. G10U U13G  0.674
127. A40C A44G  0.69
128. G5A A6U  0.696
129. U9C C30U  0.709
130. G27C U32A  0.716
131. U7G A26U  0.717
132. U32C G36A  0.718
133. U9A C16G  0.742
134. G17U C29U  0.748
135. U13C U21A  0.754
136. U28C G31C  0.769
137. U12A G17A  0.77
138. G8U G18U  0.779
139. U32C G35U  0.795
140. C11G U28A  0.809
141. U13A G27C  0.823
142. G8C A34C  0.83
143. G4C G33U  0.837
144. A6G G8U  0.844
145. U13C U21G  0.864
146. U24A G35A  0.873
147. C11A C38G  0.881
148. G10A C15A  0.927
149. G8U C30G  0.942
150. C15A G33C  0.953
151. A1G U21A  0.968
152. C2U U9C  0.983
153. G31A A34C  0.991
154. U9A U14G  1
155. G8C A37C  1.05
156. U14C G31U  1.05
157. G5A U7C  1.06
158. C11G A37C  1.11
159. C2U U14G  1.11
160. U7C U24C  1.24
161. C3U C11G  1.25
162. U9G C30U  1.26
163. U7G  1.37
164. U7C G8U  1.38
165. U13A G31U  1.39
166. G8C U13A  1.41
167. U7A G33C  1.44
